B1: Histone-lysine N-methyltransferase EHMT2 (Mus musculus), Q9Z148-1 (parent)
chain: MRGLPRGRGLMRARGRGRAAPTGGRGRGRGGAHRGRGRPRSLLSLPRAQASWAPQLPAGLTGPPVPCLPSQGEAPAEMGALLLEKEPRGAAERVHSSLGDTPQSEETLPKANPDSLEPAGPSSPASVTVTVGDEGADTPVGAASLIGDEPESLEGDGGRIVLGHATKSFPSSPSKGGACPSRAKMSMTGAGKSPPSVQSLAMRLLSMPGAQGAATAGPEPSPATTAAQEGQPKVHRARKTMSKPSNGQPPIPEKRPPEVQHFRMSDDMHLGKVTSDVAKRRKLNSGSLSEDLGSAGGSGDIILEKGEPRPLEEWETVVGDDFSLYYDAYSVDERVDSDSKSEVEALAEQLSEEEEEEEEEEEEEEEEEEEEEEEEEDEESGNQSDRSGSSGRRKAKKKWRKDSPWVKPSRKRRKREPPRAKEPRGVNGVGSSGPSEYMEVPLGSLELPSEGTLSPNHAGVSNDTSSLETERGFEELPLCSCRMEAPKIDRISERAGHKCMATESVDGELLGCNAAILKRETMRPSSRVALMVLCEAHRARMVKHHCCPGCGYFCTAGTFLECHPDFRVAHRFHKACVSQLNGMVFCPHCGEDASEAQEVTIPRGDGGTPPIGTAAPALPPLAHDAPGRADTSQPSARMRGHGEPRRPPCDPLADTIDSSGPSLTLPNGGCLSAVGLPPGPGREALEKALVIQESERRKKLRFHPRQLYLSVKQGELQKVILMLLDNLDPNFQSDQQSKRTPLHAAAQKGSVEICHVLLQAGANINAVDKQQRTPLMEAVVNNHLEVARYMVQLGGCVYSKEEDGSTCLHHAAKIGNLEMVSLLLSTGQVDVNAQDSGGWTPIIWAAEHKHIDVIRMLLTRGADVTLTDNEENICLHWASFTGSAAIAEVLLNAQCDLHAVNYHGDTPLHIAARESYHDCVLLFLSRGANPELRNKEGDTAWDLTPERSDVWFALQLNRKLRLGVGNRAVRTEKIICRDVARGYENVPIPCVNGVDGEPCPEDYKYISENCETSTMNIDRNITHLQHCTCVDDCSSSNCLCGQLSIRCWYDKDGRLLQEFNKIEPPLIFECNQACSCWRSCKNRVVQSGIKVRLQLYRTAKMGWGVRALQTIPQGTFICEYVGELISDAEADVREDDSYLFDLDNKDGEVYCIDARYYGNISRFINHLCDPNIIPVRVFMLHQDLRFPRIAFFSSRDIRTGEELGFDYGDRFWDIKSKYFTCQCGSEKCKHSAEAIALEQSRLARLDPHPELLPDLSSLPPINT

One assay covers variants of B1. The note with it: with gfi1_human GFI1, Q99684.
Chain of gfi1_human GFI1, Q99684 (Q99684 whole entry): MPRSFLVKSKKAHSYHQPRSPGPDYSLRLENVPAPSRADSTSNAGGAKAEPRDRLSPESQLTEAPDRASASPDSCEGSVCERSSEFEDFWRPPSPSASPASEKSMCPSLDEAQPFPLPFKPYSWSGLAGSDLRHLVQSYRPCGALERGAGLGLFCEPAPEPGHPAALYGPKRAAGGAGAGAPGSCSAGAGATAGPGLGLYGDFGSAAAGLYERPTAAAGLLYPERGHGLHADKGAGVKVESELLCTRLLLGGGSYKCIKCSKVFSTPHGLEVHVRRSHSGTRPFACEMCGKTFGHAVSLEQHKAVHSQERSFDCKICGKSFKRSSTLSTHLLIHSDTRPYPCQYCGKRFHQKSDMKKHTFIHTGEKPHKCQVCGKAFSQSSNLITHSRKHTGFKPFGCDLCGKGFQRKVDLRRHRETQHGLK
On to W839A, for which the “effect of a mutation on the interaction” value was “decreasing interaction”.

On to E847A, for which the “effect of a mutation on the interaction” value is listed as “decreasing interaction”.

The variants in the next assay derive from B1. The note with it: with ncoa2_mouse Ncoa2, Q61026.
Chain of ncoa2_mouse Ncoa2, Q61026 (Q61026 whole entry): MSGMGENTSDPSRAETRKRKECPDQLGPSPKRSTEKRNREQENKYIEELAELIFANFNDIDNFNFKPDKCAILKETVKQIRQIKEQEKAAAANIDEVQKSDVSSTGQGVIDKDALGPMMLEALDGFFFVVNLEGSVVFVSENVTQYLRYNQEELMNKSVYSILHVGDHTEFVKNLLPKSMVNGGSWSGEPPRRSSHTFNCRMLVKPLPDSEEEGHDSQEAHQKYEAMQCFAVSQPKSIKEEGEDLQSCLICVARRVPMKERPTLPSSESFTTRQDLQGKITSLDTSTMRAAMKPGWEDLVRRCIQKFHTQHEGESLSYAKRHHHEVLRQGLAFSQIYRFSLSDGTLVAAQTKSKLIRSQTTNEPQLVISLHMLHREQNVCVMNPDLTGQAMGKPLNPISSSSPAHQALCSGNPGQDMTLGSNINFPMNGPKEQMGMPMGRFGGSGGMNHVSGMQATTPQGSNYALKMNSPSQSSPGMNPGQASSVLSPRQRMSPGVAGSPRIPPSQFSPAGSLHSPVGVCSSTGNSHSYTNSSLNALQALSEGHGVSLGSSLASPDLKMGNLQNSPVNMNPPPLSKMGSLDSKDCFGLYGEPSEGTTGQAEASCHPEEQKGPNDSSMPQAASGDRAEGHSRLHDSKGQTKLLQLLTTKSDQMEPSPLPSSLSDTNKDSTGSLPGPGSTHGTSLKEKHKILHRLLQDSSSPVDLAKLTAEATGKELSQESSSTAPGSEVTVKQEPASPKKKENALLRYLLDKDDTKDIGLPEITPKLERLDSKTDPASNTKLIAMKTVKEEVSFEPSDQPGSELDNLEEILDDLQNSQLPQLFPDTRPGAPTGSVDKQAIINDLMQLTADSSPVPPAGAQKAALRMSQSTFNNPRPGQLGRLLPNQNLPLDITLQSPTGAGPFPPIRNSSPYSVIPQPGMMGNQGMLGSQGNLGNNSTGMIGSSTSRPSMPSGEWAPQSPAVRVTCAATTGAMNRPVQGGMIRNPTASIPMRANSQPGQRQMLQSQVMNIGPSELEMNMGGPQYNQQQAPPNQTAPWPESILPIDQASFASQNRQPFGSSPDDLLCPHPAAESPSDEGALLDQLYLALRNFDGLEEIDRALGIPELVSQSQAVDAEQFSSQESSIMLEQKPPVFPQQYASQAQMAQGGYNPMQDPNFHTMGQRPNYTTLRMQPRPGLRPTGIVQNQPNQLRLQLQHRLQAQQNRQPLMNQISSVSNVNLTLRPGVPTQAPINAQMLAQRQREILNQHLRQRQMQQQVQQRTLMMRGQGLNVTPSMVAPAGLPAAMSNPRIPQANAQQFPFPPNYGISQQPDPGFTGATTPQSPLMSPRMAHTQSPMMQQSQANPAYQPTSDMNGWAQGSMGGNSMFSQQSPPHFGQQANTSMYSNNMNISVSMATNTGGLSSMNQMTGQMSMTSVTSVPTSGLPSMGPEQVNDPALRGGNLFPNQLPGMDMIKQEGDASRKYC
In the case of E847A, the “effect of a mutation on the interaction” value is on record as “decreasing interaction”.

The record behind these values is IntAct's records for PubMed 18264113.
